Measurements reported in patent US20230295345A1 (published 2023).

T1: matriptase-3 (TMPRSS7) over-expressed in HEK293T cells (human, UniProt Q7RTY8 1-843)
T1 sequence: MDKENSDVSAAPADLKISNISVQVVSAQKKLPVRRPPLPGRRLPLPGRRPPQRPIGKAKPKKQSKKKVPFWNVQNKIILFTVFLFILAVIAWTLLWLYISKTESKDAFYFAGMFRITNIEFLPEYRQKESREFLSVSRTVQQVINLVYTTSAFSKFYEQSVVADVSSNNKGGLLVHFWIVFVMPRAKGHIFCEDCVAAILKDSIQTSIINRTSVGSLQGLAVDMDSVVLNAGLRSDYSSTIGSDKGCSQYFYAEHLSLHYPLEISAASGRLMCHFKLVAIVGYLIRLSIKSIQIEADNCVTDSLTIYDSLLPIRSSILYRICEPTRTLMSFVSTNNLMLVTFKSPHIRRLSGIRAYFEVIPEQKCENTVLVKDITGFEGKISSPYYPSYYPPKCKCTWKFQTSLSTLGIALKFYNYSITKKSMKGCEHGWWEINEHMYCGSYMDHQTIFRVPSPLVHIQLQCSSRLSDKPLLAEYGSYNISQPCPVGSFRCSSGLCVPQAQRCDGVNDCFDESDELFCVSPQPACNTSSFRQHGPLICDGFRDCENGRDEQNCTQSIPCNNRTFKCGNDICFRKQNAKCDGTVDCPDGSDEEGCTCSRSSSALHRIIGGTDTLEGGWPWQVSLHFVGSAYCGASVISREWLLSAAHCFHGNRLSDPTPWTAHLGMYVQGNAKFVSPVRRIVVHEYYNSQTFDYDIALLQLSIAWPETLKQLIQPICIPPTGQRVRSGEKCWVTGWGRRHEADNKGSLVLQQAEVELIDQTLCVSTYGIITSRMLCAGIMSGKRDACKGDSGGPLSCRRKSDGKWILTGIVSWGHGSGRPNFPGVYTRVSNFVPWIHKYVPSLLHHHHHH

T2: matriptase (ST14) over-expressed in HEK293T cells (human, UniProt Q9Y5Y6 1-855)
T2 construct: also called matriptase-1
T2 sequence: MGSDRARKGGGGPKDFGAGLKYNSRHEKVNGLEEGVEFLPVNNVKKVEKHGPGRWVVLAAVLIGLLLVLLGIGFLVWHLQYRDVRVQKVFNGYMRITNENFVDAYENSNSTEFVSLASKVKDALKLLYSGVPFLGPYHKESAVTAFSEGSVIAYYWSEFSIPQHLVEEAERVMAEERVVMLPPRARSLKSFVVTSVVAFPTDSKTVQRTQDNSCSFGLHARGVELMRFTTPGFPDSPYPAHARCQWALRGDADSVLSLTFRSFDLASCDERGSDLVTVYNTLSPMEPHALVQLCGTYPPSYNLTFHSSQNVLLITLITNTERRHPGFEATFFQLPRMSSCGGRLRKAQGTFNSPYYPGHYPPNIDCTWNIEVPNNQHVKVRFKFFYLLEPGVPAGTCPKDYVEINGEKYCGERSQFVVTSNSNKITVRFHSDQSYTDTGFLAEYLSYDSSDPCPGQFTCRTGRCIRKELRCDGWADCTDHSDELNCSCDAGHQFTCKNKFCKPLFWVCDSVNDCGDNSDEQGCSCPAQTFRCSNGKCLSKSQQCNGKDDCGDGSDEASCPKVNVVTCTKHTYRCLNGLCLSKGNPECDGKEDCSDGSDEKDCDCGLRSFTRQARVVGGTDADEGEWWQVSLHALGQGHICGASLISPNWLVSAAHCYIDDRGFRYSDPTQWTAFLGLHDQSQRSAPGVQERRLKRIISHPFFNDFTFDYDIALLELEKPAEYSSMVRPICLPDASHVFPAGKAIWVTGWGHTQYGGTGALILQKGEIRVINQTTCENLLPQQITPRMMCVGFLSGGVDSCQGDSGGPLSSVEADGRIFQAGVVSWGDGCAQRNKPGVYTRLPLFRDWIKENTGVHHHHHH


Experiments:
[1] = target: T1, matriptase-3 (TMPRSS7) over-expressed …; assay: FACS on permeabilized HEK293T cells over-expressing TMPRSS7
Source text: (§1) To determine if anti-TMPRSS6 antibodies bind to homologous matriptases, HEK293T cells over-expressing matriptase (ST14) (SEQ ID NO: 100) (FIGS. 5B, 5E, 5H, 5K, 5N, 5Q), and HEK293T cells over-expressing matriptase-3 (TMPRSS7) (SEQ ID NO: 101) (FIGS. 5C, 5F, 5I, 5L, 5O, 5R) were collected (generated in house). HEK293T cells stably expressing human TMPRSS6 (matriptase-2) (SEQ ID NO:97) (generated by LakePharma Inc as described above, FIGS. 5A, 5D, 5G, 5J, 5M, 5P) were used as a positive control and HEK293T cells (FIGS. 5A-5R) were used as a negative control (as described above). Cells were blocked and permeabilized with dPBS + 3% BSA + 0.1% Tween-20 before incubation with various anti-TMPRSS6 antibodies diluted in dPBS + 3% BSA + 0.1% Tween-20. Cells were incubated with anti-TMPRSS6 antibodies and their humanized variants at a concentration of roughly 1 µg/ml for 1 hr. After incubation, cells were washed with dPBS and incubated with goat anti-mouse IgG conjugated with AlexaFluor-488 (Invitrogen, FIGS. 5A-5I) or goat anti-human IgG conjugated with Allophycocyanin (APC) (Jackson Immuno Research, FIGS. 5J-5R) as a 2° antibody. At last, cells were washed with dPBS and re-suspended with dPBS + 1 mM EDTA, and then subjected to FACS analysis using a NOVOCYTE® Flow Cytometer. Bound antibody was determined by excitation at 488 nm and measurement of emission (FITC-A) at 530 nm (FIGS. 5A-5I) or by excitation at 640 nm and measurement of emission (APC-A) at 675 nm (FIGS. 5J-5R). Results for these assays are shown in histogram plots in FIGS. 5A-5R.

[2] = target: T2, matriptase (ST14) over-expressed in …; assay: FACS on permeabilized HEK293T cells over-expressing ST14
Source text: as §1

Binder | binding result [1] | binding result [2]
hzMWTx-002Var anti-TMPRSS6 antibody (antibody, human IgG1, kappa, N297A, V domains shown, Humanized variant of MWTx-002, human IgG1/kappa) VH: EVQLVQSGAEVKKPGASVKVSCKASGFNIKDYYIHWVRQATGQGLEWMGRIDPEDAESEYAPKFQGRVTITADTSTDTAYMELSSLRSEDTAVYYCTRGDSMMVTYFDYWGQGTLVTVSS VL: DIQMTQSPSSLSASVGDRVTITCKASQDVSTAVAWYQQKPGKAPKLLIYWAFTRHTGVPSRFSGSGSGTDYALTISSLQPEDFATYYCQQHYRSPWTFGGGTKVEIKR | no binding (tested: roughly 1 µg/ml) | no binding (tested: roughly 1 µg/ml)
hzMWTx-003Var anti-TMPRSS6 antibody (antibody, human IgG1, kappa, L234A L235A, V domains shown, Humanized variant of MWTx-003, human IgG1/kappa) VH: QVQLVQSGAEVKKPGASVKVSCKASGFNIEDYYMHWVRQAPGQRLEWMGRIDPEDAETTYSPKFQGRVTIIPDTSANTAYMELSSLRSEDTAVYYCARSIYLDPMDYWGQGTLVTVSS VL: DIQMTQSPKSLSASVGDRVTITCRASQDVTTALAWYQQKPGQSPKLLIYWATTRHSGVPSRFSGSGSGTDFTLTISSLQPEDFATYYCQQHYSTPYTFGQGTKLEIKR | no binding (tested: roughly 1 µg/ml) | no binding (tested: roughly 1 µg/ml)
MWTx-001 anti-TMPRSS6 antibody (antibody, mouse IgG2a, kappa, V domains shown, Mouse monoclonal antibody from a hybridoma (ATCC PTA-126759)) VH: QVQLQQPGAELAKPGASVKMSCKASGYTFTSYWITWVKQRPGQDLEWIGNIYPGSGSTYYNEKFKSKATLTVDTSSRTAYMQLSSLTSADSAVYYCAPYDSDYAMDYWGQGTSVTVSS VL: DIKMTQSPSSMYASLGERVTITCKASQDINNYLSWFQQKPGKSPKTLIYRANRLVDGVPSRVSGSGSGQDYSLTISSLEYEDVGIYFCLQYDEFPLTFGAGTKLELKR | no binding (tested: roughly 1 µg/ml) | no binding (tested: roughly 1 µg/ml)
MWTx-002 anti-TMPRSS6 antibody (antibody, mouse IgG2b, kappa, V domains shown, Mouse monoclonal antibody from a hybridoma (ATCC PTA-126760)) VH: EVQLQQSGAELVKPGASVKLSCTASGFNIKDYYIHWVKERTEQGLEWFGRIDPEDGESEYAPKFQGKATLTADTSSNTAYLQLSSLTSEDTAVYYCTRGDSMMVTYFDYWGQGTTLTVSS VL: DIVMTQSHKFMSTSVGDRVSITCKASQDVSTAVAWYQQKPGQSPKLLIYWAFTRHTGVPDRFTSTGSGTDYALTISSVQAEDLALYYCQQHYRSPWTFGGGTKLEIKR | no binding (tested: roughly 1 µg/ml) | no binding (tested: roughly 1 µg/ml)
hzMWTx-001Var anti-TMPRSS6 antibody (antibody, human IgG1, kappa, N297A, V domains shown, Humanized variant of MWTx-001, human IgG1/kappa) VH: EVQLVQSGAEVKKPGASVKVSCKASGYTFTSYWITWVRQAPGQRLEWIGNIYPGSGSTYYNEKFKSKATITRDTSSRTAYMELSSLRSEDTAVYYCAPYDADYAMDYWGQGTLVTVSS VL: DIQMTQSPSSLSASVGDRVTITCKASQDISNYLSWFQQKPGKAPKLLIYRANRLVEGVPSRFSGSGSGTDFTLTISSLQPEDFATYFCLQYDEFPLTFGGGTKVEIKR | no binding (tested: roughly 1 µg/ml) | no binding (tested: roughly 1 µg/ml)
MWTx-003 anti-TMPRSS6 antibody (antibody, mouse IgG2b, kappa, V domains shown, Mouse monoclonal antibody from a hybridoma (ATCC PTA-126761); also called r4K12B (recombinantly expressed version, same HC and LC)) VH: EVQLQQSGAELVKPGASVKLSCTASGFNIEDYYIHWVKERTEQGLEWIGRIDPEDGETTYAPQFQGKATIIPDTSSNTAYMQLSSLTSEDAAVYYCARSIYLDPMDYWGQGTSVTVSS VL: DIVMTQSHKFMSTSVGDRVSITCKASQDVTTAVAWYQQKPGQSPKILIYWATTRHTGVPDRFTGSISGTTYILTISSVQAEDLALYYCQQHYSTPYTFGGGTKLEIKR | no binding (tested: roughly 1 µg/ml) | no binding (tested: roughly 1 µg/ml)
